This passage reports normalised SPOT signal, Boehringer light units (BLU); mean over the file's lines of this peptide results from publication PMC314469, “Protein Interaction Networks by Proteome Peptide Scanning” (PLoS Biology, 2004).

The first test has as its target T1, Yfr024 SH3 (LSB3_YEAST), P43603.
T1 chain: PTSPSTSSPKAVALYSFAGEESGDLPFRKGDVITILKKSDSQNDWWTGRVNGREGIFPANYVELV
The test is described as follows: SPOT array.
PLQPRPPVKPLSKQ [YGR084C 87-100]: the normalised SPOT signal, Boehringer light units (BLU); mean over the file's lines of this peptide was determined as 861.
Same read-out and setting: under PNEPGAPSRLSFEN [YBL067C 285-298] stands 34.7; under PIMPTLPPRPYITI [YGL060W 537-550], 26100; under PASPTPPYRSRETE [YLR457C 288-301], 933.
As to NYIPPDPPKDIQLN [YBR216C 239-252], the normalised SPOT signal, Boehringer light units (BLU); mean over the file's lines of this peptide was 254.
PNYPDSPPKVTFIS [YGL087C 66-79] yielded a normalised SPOT signal, Boehringer light units (BLU); mean over the file's lines of this peptide of 87.1.
Turning to PLPPIPPTKSKTSP [YHL007C 535-548], the normalised SPOT signal, Boehringer light units (BLU); mean over the file's lines of this peptide was 504.
Still for that read-out and setting: under PKEPRLPKRKVAVM [YPL212C 67-80] stands 38000; under PIQPQEPFRHNTTI [YNL085W 152-165], 60.6.
PMSPGPPSKKDSRH [YJL005W 495-508] had a normalised SPOT signal, Boehringer light units (BLU); mean over the file's lines of this peptide of 996.
Same read-out and setting: the result for PAFPEYPMRRDTLY [YMR058W 448-461] reads 5040; that for PKDPSSPQRDEILT [YBR271W 27-40], 6.2.
On the same count and under the same terms, under PIVPREPLRNEPTD [YPL255W 118-131] stands 7410.
Still for that read-out and setting: under PLIPDNPGRLLSSK [YEL023C 311-324] stands 200; under PNSPTPPLKSKVSR [YER164W 1337-1350], 866; under PFLPKIPQKPGGVS [YLR164W 27-40], 2200.
On to PFLPVLPQKPGGVR [YDR178W 35-48], for which the normalised SPOT signal, Boehringer light units (BLU); mean over the file's lines of this peptide is 12700.
The same measure, in the same setting: under PFIPKFPSRESVES [YBR036C 302-315] stands 2600.
Still for that read-out and setting: under NYQPKPPIREGNGP [YLR213C 97-110] stands 114.

The target in the next test is T2, Yhr016c SH3 (YSC84_YEAST), P32793.
T2 chain: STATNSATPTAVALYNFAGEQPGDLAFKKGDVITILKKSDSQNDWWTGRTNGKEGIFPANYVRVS
The test is described as follows: SPOT array.
For the molecule PLQPRPPVKPLSKQ [YGR084C 87-100], the normalised SPOT signal, Boehringer light units (BLU); mean over the file's lines of this peptide came out at 128.
The same measure, in the same setting: the result for PNEPGAPSRLSFEN [YBL067C 285-298] reads 258.
As for PIMPTLPPRPYITI [YGL060W 537-550], the normalised SPOT signal, Boehringer light units (BLU); mean over the file's lines of this peptide amounted to 24900.
The same measure, in the same setting: the result for PASPTPPYRSRETE [YLR457C 288-301] reads 729.
With NYIPPDPPKDIQLN [YBR216C 239-252], the normalised SPOT signal, Boehringer light units (BLU); mean over the file's lines of this peptide worked out at 79.4.
The same measure, in the same setting: under PNYPDSPPKVTFIS [YGL087C 66-79] stands 260.
PLPPIPPTKSKTSP [YHL007C 535-548] yielded a normalised SPOT signal, Boehringer light units (BLU); mean over the file's lines of this peptide of 140.
Still for that read-out and setting: under PKEPRLPKRKVAVM [YPL212C 67-80] stands 39200.
The same measure, in the same setting: under PIQPQEPFRHNTTI [YNL085W 152-165] stands 52.8; under PMSPGPPSKKDSRH [YJL005W 495-508], 178.
On the same count and under the same terms, under PAFPEYPMRRDTLY [YMR058W 448-461] stands 1930; under PKDPSSPQRDEILT [YBR271W 27-40], 0.
Take PIVPREPLRNEPTD [YPL255W 118-131]: the normalised SPOT signal, Boehringer light units (BLU); mean over the file's lines of this peptide is 5170.
Still for that read-out and setting: under PLIPDNPGRLLSSK [YEL023C 311-324] stands 205.
The same measure, in the same setting: the result for PNSPTPPLKSKVSR [YER164W 1337-1350] reads 164; that for PFLPKIPQKPGGVS [YLR164W 27-40], 173; that for PFLPVLPQKPGGVR [YDR178W 35-48], 338.
As for PFIPKFPSRESVES [YBR036C 302-315], the normalised SPOT signal, Boehringer light units (BLU); mean over the file's lines of this peptide amounted to 1410.
On the same count and under the same terms, the result for NYQPKPPIREGNGP [YLR213C 97-110] reads 156.

The next test concerns the target T3, Rvs167 SH3 (RV167_YEAST), P39743.
T3 chain: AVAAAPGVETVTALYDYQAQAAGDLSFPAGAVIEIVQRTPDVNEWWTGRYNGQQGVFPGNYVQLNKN
The test is described as follows: SPOT array.
PLQPRPPVKPLSKQ [YGR084C 87-100] yielded a normalised SPOT signal, Boehringer light units (BLU); mean over the file's lines of this peptide of 57.3.
Still for that read-out and setting: under PNEPGAPSRLSFEN [YBL067C 285-298] stands 52.4; under PIMPTLPPRPYITI [YGL060W 537-550], 5510.
Still for that read-out and setting: under PASPTPPYRSRETE [YLR457C 288-301] stands 13.1.
On to NYIPPDPPKDIQLN [YBR216C 239-252], for which the normalised SPOT signal, Boehringer light units (BLU); mean over the file's lines of this peptide was found to be 176.
On the same count and under the same terms, the result for PNYPDSPPKVTFIS [YGL087C 66-79] reads 12.5; that for PLPPIPPTKSKTSP [YHL007C 535-548], 30.2; that for PKEPRLPKRKVAVM [YPL212C 67-80], 5510.
Same read-out and setting: under PIQPQEPFRHNTTI [YNL085W 152-165] stands 20.4; under PMSPGPPSKKDSRH [YJL005W 495-508], 138; under PAFPEYPMRRDTLY [YMR058W 448-461], 57.6.
In the case of PKDPSSPQRDEILT [YBR271W 27-40], the normalised SPOT signal, Boehringer light units (BLU); mean over the file's lines of this peptide was 53.2.
PIVPREPLRNEPTD [YPL255W 118-131] registered a normalised SPOT signal, Boehringer light units (BLU); mean over the file's lines of this peptide of 34500.
Same read-out and setting: under PLIPDNPGRLLSSK [YEL023C 311-324] stands 42.7.
Consider PNSPTPPLKSKVSR [YER164W 1337-1350], for which the normalised SPOT signal, Boehringer light units (BLU); mean over the file's lines of this peptide was 25.
PFLPKIPQKPGGVS [YLR164W 27-40] showed a normalised SPOT signal, Boehringer light units (BLU); mean over the file's lines of this peptide of 50.1.
Still for that read-out and setting: the result for PFLPVLPQKPGGVR [YDR178W 35-48] reads 20; that for PFIPKFPSRESVES [YBR036C 302-315], 506.
Still for that read-out and setting: under NYQPKPPIREGNGP [YLR213C 97-110] stands 79.4.

The target of another test is T4, Boi2 SH3 (BOI2_YEAST), P39969.
T4 chain: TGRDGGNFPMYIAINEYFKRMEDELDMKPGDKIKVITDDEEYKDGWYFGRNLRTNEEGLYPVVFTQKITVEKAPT
The experiment in a line: SPOT array.
PLQPRPPVKPLSKQ [YGR084C 87-100] showed a normalised SPOT signal, Boehringer light units (BLU); mean over the file's lines of this peptide of 34.5.
For the molecule PNEPGAPSRLSFEN [YBL067C 285-298], the normalised SPOT signal, Boehringer light units (BLU); mean over the file's lines of this peptide turned out to be 71.5.
Consider PIMPTLPPRPYITI [YGL060W 537-550], for which the normalised SPOT signal, Boehringer light units (BLU); mean over the file's lines of this peptide came to 87.6.
On the same count and under the same terms, the result for PASPTPPYRSRETE [YLR457C 288-301] reads 31; that for NYIPPDPPKDIQLN [YBR216C 239-252], 40.9.
PNYPDSPPKVTFIS [YGL087C 66-79] returned a normalised SPOT signal, Boehringer light units (BLU); mean over the file's lines of this peptide of 76.3.
On the same count and under the same terms, under PLPPIPPTKSKTSP [YHL007C 535-548] stands 21; under PKEPRLPKRKVAVM [YPL212C 67-80], 28.3.
Still for that read-out and setting: under PIQPQEPFRHNTTI [YNL085W 152-165] stands 7.9; under PMSPGPPSKKDSRH [YJL005W 495-508], 147; under PAFPEYPMRRDTLY [YMR058W 448-461], 82.5.
On the same count and under the same terms, under PKDPSSPQRDEILT [YBR271W 27-40] stands 156; under PIVPREPLRNEPTD [YPL255W 118-131], 33300.
PLIPDNPGRLLSSK [YEL023C 311-324] gave a normalised SPOT signal, Boehringer light units (BLU); mean over the file's lines of this peptide of 48.5.
On the same count and under the same terms, under PNSPTPPLKSKVSR [YER164W 1337-1350] stands 40.1; under PFLPKIPQKPGGVS [YLR164W 27-40], 45.9.
Same read-out and setting: under PFLPVLPQKPGGVR [YDR178W 35-48] stands 35.7; under PFIPKFPSRESVES [YBR036C 302-315], 70.4; under NYQPKPPIREGNGP [YLR213C 97-110], 53.8.

A further test concerns the target T5, Boi1 SH3 (BOI1_YEAST), P38041.
T5 chain: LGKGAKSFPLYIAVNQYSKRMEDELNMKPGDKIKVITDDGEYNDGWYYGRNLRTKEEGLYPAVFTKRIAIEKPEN
The test is described as follows: SPOT array.
Molecule PLQPRPPVKPLSKQ [YGR084C 87-100] came in with a normalised SPOT signal, Boehringer light units (BLU); mean over the file's lines of this peptide of 91.7.
Same read-out and setting: the result for PNEPGAPSRLSFEN [YBL067C 285-298] reads 104.
Still for that read-out and setting: under PIMPTLPPRPYITI [YGL060W 537-550] stands 31.6; under PASPTPPYRSRETE [YLR457C 288-301], 51.2.
Same read-out and setting: the result for NYIPPDPPKDIQLN [YBR216C 239-252] reads 182; that for PNYPDSPPKVTFIS [YGL087C 66-79], 68.6; that for PLPPIPPTKSKTSP [YHL007C 535-548], 80.6.
Molecule PKEPRLPKRKVAVM [YPL212C 67-80] gave a normalised SPOT signal, Boehringer light units (BLU); mean over the file's lines of this peptide of 227.
The same measure, in the same setting: the result for PIQPQEPFRHNTTI [YNL085W 152-165] reads 104; that for PMSPGPPSKKDSRH [YJL005W 495-508], 127.
Still for that read-out and setting: under PAFPEYPMRRDTLY [YMR058W 448-461] stands 3190; under PKDPSSPQRDEILT [YBR271W 27-40], 138.
Same read-out and setting: under PIVPREPLRNEPTD [YPL255W 118-131] stands 628.
Molecule PLIPDNPGRLLSSK [YEL023C 311-324] registered a normalised SPOT signal, Boehringer light units (BLU); mean over the file's lines of this peptide of 94.5.
Consider PNSPTPPLKSKVSR [YER164W 1337-1350], for which the normalised SPOT signal, Boehringer light units (BLU); mean over the file's lines of this peptide stood at 170.
On the same count and under the same terms, under PFLPKIPQKPGGVS [YLR164W 27-40] stands 80.5.
Same read-out and setting: under PFLPVLPQKPGGVR [YDR178W 35-48] stands 49.9; under PFIPKFPSRESVES [YBR036C 302-315], 39.7; under NYQPKPPIREGNGP [YLR213C 97-110], 43.5.
